Molecular target: GST-tagged PARP1, full-length (human, UniProt P09874 1-1014)
Experiment: co-IP

Chain of GST-tagged PARP1, full-length (P09874 whole entry): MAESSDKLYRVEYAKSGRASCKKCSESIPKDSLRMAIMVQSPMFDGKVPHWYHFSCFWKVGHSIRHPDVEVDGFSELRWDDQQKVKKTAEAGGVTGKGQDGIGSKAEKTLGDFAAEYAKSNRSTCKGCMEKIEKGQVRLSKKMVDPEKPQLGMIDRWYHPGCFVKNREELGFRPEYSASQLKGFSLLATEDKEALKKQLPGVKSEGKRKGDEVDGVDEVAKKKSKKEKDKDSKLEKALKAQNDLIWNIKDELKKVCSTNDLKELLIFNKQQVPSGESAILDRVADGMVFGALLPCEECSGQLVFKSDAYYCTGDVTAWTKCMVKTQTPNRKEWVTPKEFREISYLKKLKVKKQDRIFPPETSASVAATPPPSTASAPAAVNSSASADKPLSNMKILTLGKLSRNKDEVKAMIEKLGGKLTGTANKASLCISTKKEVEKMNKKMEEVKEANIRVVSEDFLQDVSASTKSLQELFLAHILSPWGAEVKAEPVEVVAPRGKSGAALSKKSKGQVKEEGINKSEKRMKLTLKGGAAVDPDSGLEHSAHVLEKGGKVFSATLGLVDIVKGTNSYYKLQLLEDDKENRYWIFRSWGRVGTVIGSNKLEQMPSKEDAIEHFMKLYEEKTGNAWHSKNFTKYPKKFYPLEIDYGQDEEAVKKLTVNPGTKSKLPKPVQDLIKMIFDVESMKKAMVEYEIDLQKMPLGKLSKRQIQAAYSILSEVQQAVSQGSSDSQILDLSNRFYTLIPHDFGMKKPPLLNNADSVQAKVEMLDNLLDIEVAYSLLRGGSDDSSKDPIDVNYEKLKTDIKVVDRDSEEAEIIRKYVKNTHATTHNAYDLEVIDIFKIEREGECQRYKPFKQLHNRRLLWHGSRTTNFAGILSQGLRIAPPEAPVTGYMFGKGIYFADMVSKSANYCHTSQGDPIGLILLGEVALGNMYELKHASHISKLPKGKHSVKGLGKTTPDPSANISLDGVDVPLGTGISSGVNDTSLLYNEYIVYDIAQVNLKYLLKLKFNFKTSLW

B1: MBP-tagged NONO (natural protein, human, UniProt Q15233 1-471, looked up)
chain: MQSNKTFNLEKQNHTPRKHHQHHHQQQHHQQQQQQPPPPPIPANGQQASSQNEGLTIDLKNFRKPGEKTFTQRSRLFVGNLPPDITEEEMRKLFEKYGKAGEVFIHKDKGFGFIRLETRTLAEIAKVELDNMPLRGKQLRVRFACHSASLTVRNLPQYVSNELLEEAFSVFGQVERAVVIVDDRGRPSGKGIVEFSGKPAARKALDRCSEGSFLLTTFPRPVTVEPMDQLDDEEGLPEKLVIKNQQFHKEREQPPRFAQPGSFEYEYAMRWKALIEMEKQQQDQVDRNIKEAREKLEMEMEAARHEHQVMLMRQDLMRRQEELRRMEELHNQEVQKRKQLELRQEEERRRREEEMRRQQEEMMRRQQEGFKGTFPDAREQEIRMGQMAMGGAMGINNRGAMPPAPVPAGTPAPPGPATMMPDGTLGLTPPTTERFGQAATMEGIGAIGGTPPAFNRAAPGAEFAPNKRRRY
B1: binds.

Source: publication PMC11673900 (Journal of Translational Medicine, 2024)
